Data as given in doi:10.1101/2025.11.06.687086.

Molecular target: A/Solomon Islands/3/2006 (H1N1) HA (influenza A virus A/Solomon Islands/3/2006 (H1N1))
Assay: cryo-EM structure

A/Solomon Islands/3/2006 (H1N1) HA (natural protein)
stoichiometry N: 3
